The term Kd denotes the equilibrium constant for the complex coming apart.

First the molecules themselves.
B6: RAP (commercial; R&D, 4296-LR) (natural protein, human)
chain: YSREKNQPKPSPKRESGEEFRMEKLNQLWEKAQRLHLPPVRLAELHADLKIQERDELAWKKLKLDGLDEDGEKEARLIRNLNVILAKYGLDGKKDARQVTSNSLSGTQEDGLDDPRLEKLWHKAKTSGKFSGEELDKLWREFLHHKEKVHEYNVLLETLSRTEEIHENVISPSDLSDIKGSVLHSRHTELKEKLRSINQGLDRLRRVSHQGYSTEAEFEEPRVIDLWDLAQSANLTDKELEAFREELKHFEAKIEKHNHYQKQLEIAHEKLRHAESVGDGERVSRSREKHALLEGRTKELGYTVKKHLQDLSGRISRARHNEL
notes: RAP (LDL-receptor related protein-associated protein), commercial preparation; also called receptor-associated protein; LDL-receptor related protein-associated protein; source: bought: R&D (4296-LR)

Several values for one entry are separate records, joined by “and”; a condition that tells them apart may be missing. Equal entries are not always repeated.

What all share (conditions): both partners purified
The target of assay [1] is T1, recombinant Factor VIII (Advate) (UniProt P00451 20-2351).
T1 construct: blood coagulation factor VIII, recombinant drug product Advate; also called FVIII; blood coagulation factor VIII; source: bought: Advate
T1 sequence (P00451 20-2351): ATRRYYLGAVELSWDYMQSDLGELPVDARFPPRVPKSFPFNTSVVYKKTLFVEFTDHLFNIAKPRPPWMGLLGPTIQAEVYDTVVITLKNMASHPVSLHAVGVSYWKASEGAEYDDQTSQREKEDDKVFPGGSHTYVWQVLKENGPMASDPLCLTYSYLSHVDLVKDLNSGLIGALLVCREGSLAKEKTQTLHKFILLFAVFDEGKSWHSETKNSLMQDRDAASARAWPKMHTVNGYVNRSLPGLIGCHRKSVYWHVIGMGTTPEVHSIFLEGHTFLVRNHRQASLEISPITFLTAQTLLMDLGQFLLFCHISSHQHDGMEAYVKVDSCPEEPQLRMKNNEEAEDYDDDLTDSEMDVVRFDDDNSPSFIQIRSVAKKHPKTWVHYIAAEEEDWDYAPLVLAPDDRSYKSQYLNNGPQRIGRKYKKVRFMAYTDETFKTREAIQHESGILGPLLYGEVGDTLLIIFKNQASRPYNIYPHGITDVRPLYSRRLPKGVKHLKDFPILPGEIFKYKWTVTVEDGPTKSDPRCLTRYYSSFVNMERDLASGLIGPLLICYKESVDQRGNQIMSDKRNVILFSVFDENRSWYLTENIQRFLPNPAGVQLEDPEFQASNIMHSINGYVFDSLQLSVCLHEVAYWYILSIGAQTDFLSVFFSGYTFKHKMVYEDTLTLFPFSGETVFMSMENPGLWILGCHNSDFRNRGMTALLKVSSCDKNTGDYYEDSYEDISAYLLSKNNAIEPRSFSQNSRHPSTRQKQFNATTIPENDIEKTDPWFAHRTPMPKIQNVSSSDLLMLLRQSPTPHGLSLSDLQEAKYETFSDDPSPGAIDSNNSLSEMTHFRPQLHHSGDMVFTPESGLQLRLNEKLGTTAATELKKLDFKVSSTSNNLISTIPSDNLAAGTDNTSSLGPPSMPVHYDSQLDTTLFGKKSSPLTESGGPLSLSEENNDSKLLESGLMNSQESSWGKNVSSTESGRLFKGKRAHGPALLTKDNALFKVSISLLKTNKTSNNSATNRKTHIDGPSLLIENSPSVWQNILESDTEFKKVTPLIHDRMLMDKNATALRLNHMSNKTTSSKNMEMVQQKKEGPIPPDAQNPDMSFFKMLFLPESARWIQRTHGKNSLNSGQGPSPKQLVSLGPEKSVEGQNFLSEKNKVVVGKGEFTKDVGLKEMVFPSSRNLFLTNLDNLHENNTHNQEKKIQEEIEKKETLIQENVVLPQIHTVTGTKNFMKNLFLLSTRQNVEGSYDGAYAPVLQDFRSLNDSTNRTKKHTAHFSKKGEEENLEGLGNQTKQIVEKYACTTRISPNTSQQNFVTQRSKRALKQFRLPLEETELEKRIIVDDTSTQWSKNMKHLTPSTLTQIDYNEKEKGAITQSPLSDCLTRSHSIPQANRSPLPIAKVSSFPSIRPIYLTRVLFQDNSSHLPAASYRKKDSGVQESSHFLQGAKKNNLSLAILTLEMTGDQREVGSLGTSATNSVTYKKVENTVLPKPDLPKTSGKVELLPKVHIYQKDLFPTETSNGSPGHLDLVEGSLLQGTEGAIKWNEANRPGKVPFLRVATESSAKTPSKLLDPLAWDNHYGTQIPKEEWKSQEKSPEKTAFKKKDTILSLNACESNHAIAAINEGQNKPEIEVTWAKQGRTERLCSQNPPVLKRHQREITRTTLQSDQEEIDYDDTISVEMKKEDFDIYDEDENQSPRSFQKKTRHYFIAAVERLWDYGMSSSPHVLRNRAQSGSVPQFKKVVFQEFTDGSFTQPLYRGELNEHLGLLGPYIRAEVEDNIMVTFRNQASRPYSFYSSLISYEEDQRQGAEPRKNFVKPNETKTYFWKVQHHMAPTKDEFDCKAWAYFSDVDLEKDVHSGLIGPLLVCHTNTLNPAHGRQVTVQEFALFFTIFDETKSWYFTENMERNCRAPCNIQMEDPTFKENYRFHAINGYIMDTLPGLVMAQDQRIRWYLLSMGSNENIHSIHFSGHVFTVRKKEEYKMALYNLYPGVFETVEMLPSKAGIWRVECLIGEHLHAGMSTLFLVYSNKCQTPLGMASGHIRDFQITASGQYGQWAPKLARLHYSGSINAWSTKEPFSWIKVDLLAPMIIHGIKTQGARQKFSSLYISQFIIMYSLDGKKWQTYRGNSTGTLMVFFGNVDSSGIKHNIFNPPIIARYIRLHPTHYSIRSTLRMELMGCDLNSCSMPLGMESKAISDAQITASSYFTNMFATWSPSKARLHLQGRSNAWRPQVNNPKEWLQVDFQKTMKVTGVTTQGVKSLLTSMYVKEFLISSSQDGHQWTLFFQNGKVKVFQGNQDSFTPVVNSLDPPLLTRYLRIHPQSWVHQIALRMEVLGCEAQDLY
Description: SPR; Biacore T200; LRP1 cluster II coexpressed with RAP having the HTEL signal (RAP-HTEL+), monomer, amine-coupled to CM5 at ~250 RU; RAP (0.08–20 nM) or FVIII (0.8–200 nM) in flow; HBS-P Ca2+ pH 7.4; KD from the steady-state affinity model. Background: SPR reads the build-up and loss of mass on a sensor chip optically.

Assay [2] has as its target T1, recombinant Factor VIII (Advate). Description: SPR; Biacore T200; receptor fragment expressed WITHOUT RAP (RAP−), monomer, amine-coupled to CM5 at ~250 RU; RAP (0.08–20 nM), FVIII (0.8–200 nM) or ApoE3 (0.78–200 nM) in flow, 30 ul/min, contact 180 s; HBS-P Ca2+ pH 7.4 (10 mM HEPES, 150 mM NaCl, 5 mM CaCl2, 0.005% Tween-20); KD from the steady-state affinity model.
The target is the same in assay [3]. Description: SPR; Biacore T200; receptor fragment COEXPRESSED with RAP (RAP+; for the LRP1 clusters RAP without HTEL; RAP washed off during purification), monomer, amine-coupled to CM5 at ~250 RU; RAP (0.08–20 nM), FVIII (0.8–200 nM) or ApoE3 (0.78–200 nM) in flow, 30 ul/min, contact 180 s; HBS-P Ca2+ pH 7.4; KD from the steady-state affinity model.
For assay [4] the target is unchanged. The experiment in a line: SPR; Biacore T200; commercial LRP1 cluster Fc chimeras (R&D) amine-coupled to CM5 at ~250 RU; RAP (0.08–20 nM) or FVIII (0.8–200 nM) in flow; HBS-P Ca2+ pH 7.4; KD from the steady-state affinity model.
Assay [5] addresses B6. The experiment in a line: SPR; Biacore T200; receptor fragment COEXPRESSED with RAP (RAP+; for the LRP1 clusters RAP without HTEL; RAP washed off during purification), monomer, amine-coupled to CM5 at ~250 RU; RAP (0.08–20 nM), FVIII (0.8–200 nM) or ApoE3 (0.78–200 nM) in flow, 30 ul/min, contact 180 s; HBS-P Ca2+ pH 7.4; KD from the steady-state affinity model.
Assay [6] deals with B6. The experiment in a line: SPR; Biacore T200; receptor fragment expressed WITHOUT RAP (RAP−), monomer, amine-coupled to CM5 at ~250 RU; RAP (0.08–20 nM), FVIII (0.8–200 nM) or ApoE3 (0.78–200 nM) in flow, 30 ul/min, contact 180 s; HBS-P Ca2+ pH 7.4 (10 mM HEPES, 150 mM NaCl, 5 mM CaCl2, 0.005% Tween-20); KD from the steady-state affinity model.
Assay [7] concerns the target T2, LRP1 cluster III, recombinant, secreted from Sf9 cells (human, UniProt Q07954 2522-2940).
T2 construct: also called cluster III (RAP+); cluster III (RAP−)
The experiment in a line: SPR; Biacore T200; receptor fragment COEXPRESSED with RAP (RAP+; for the LRP1 clusters RAP without HTEL; RAP washed off during purification), monomer, amine-coupled to CM5 at ~250 RU; RAP (0.08–20 nM), FVIII (0.8–200 nM) or ApoE3 (0.78–200 nM) in flow, 30 ul/min, contact 180 s; HBS-P Ca2+ pH 7.4; KD from the steady-state affinity model.

T2 sequence (Q07954 2522-2940): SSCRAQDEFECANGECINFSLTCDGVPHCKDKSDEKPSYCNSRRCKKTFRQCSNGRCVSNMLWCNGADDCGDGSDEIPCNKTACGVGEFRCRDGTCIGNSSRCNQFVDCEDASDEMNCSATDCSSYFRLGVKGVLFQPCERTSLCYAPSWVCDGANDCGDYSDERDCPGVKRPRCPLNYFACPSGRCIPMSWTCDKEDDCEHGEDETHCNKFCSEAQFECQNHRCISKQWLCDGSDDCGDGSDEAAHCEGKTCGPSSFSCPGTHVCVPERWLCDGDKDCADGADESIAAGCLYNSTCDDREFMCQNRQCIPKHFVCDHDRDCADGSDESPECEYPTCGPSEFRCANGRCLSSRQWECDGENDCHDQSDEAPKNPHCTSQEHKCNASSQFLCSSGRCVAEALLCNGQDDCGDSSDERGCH

B1: LRP1 cluster II (CR.3–10), recombinant, secreted from Sf9 cells (domain or fragment)
chain: PQCQPGEFACANSRCIQERWKCDGDNDCLDNSDEAPALCHQHTCPSDRFKCENNRCIPNRWLCDGDNDCGNSEDESNATCSARTCPPNQFSCASGRCIPISWTCDLDDDCGDRSDESASCAYPTCFPLTQFTCNNGRCININWRCDNDNDCGDNSDEAGCSHSCSSTQFKCNSGRCIPEHWTCDGDNDCGDYSDETHANCTNQATRPPGGCHTDEFQCRLDGLCIPLRWRCDGDTDCMDSSDEKSCEGVTHVCDPSVKFGCKDSARCISKAWVCDGDNDCEDNSDEENCESLACRPPSHPCANNTSVCLPPDKLCDGNDDCGDGSDEGELC
notes: also called LRP1 cluster II (8 CRs); cluster II (RAP−)
In the case of B1, the Kd in assay [1] was 37 nM; in assay [2] it was 244 nM and 192 nM; in assay [3], 25 nM and 42 nM.

B2: recombinant human LRP-1 cluster II Fc chimera protein (R&D, 2368-L2) (Fc fusion, UniProt Q07954 852-1182, looked up)
chain: PQCQPGEFACANSRCIQERWKCDGDNDCLDNSDEAPALCHQHTCPSDRFKCENNRCIPNRWLCDGDNDCGNSEDESNATCSARTCPPNQFSCASGRCIPISWTCDLDDDCGDRSDESASCAYPTCFPLTQFTCNNGRCININWRCDNDNDCGDNSDEAGCSHSCSSTQFKCNSGRCIPEHWTCDGDNDCGDYSDETHANCTNQATRPPGGCHTDEFQCRLDGLCIPLRWRCDGDTDCMDSSDEKSCEGVTHVCDPSVKFGCKDSARCISKAWVCDGDNDCEDNSDEENCESLACRPPSHPCANNTSVCLPPDKLCDGNDDCGDGSDEGELC
notes: human LRP1 cluster II of the bought Fc chimera; also called commercial LRP1 cluster II; source: bought: R&D (2368-L2)
For B2, the Kd in assay [4] amounted to 450 nM.

B3: LRP1 CR.6–8 triplet coexpressed with RAP (RAP+) (domain or fragment)
chain: not shown
notes: human LRP1 complement-type repeats 6–8 (cluster II); also called LRP1 CR; 6–8 (RAP+); source: Sf9, baculovirus (pFastBac-Dual), coexpressed with RAP; purified (HisTrap Excel, Superdex 75, monomer peak)
The molecule B3 yielded an equilibrium dissociation constant (Kd) in assay [5] of 2.8 nM.

B4: LRP1 CR.6–8 triplet expressed without RAP (RAP−) (domain or fragment)
chain: not shown
notes: human LRP1 complement-type repeats 6–8 (cluster II); also called LRP1 CR.6–8 (RAP−); source: Sf9, baculovirus (pFastBac-Dual), expressed without RAP; purified (HisTrap Excel, Superdex 75, monomer peak)
As for B4, the Kd in assay [6] came out at 2.9 nM.

B5: LRP1 CR.7–8 doublet (coexpression study) (domain or fragment)
chain: not shown
notes: human LRP1 complement-type repeats 7–8 (cluster II); also called LRP1 CR.7–8 (RAP+); LRP1 CR.7–8 (RAP−); source: Sf9, baculovirus (pFastBac-Dual), expressed without RAP or coexpressed with RAP; purified (HisTrap Excel, Superdex 75, monomer peak)
Turning to B5, the Kd in assay [5] came out at 3.1 nM.

In the case of B6, the Kd in assay [7] was 2 nM.

B7: LRP1 CR.6–7 doublet (coexpression study) (domain or fragment)
chain: not shown
notes: human LRP1 complement-type repeats 6–7 (cluster II); also called LRP1 CR; 6–7 (RAP+); LRP1 CR 6–7 (RAP−); source: Sf9, baculovirus (pFastBac-Dual), expressed without RAP or coexpressed with RAP; purified (HisTrap Excel, Superdex 75, monomer peak)
Consider B7, for which the Kd in assay [6] turned out to be 3.9 nM; in assay [5] it was 3.8 nM.

B8: LRP1 CR.7 singlet (domain or fragment)
chain: not shown
notes: human LRP1 complement-type repeat 7 (cluster II); also called LRP1 CR.7 (RAP+); LRP1 CR.7 (RAP−); source: Sf9, baculovirus (pFastBac-Dual), expressed without RAP or coexpressed with RAP; purified (HisTrap Excel, Superdex 75, monomer peak)
B8: the Kd in assay [6] worked out at 43.7 nM; in assay [5] it was 34.9 nM.

The values above are taken from paper PMC8239462, “Molecular chaperone RAP interacts with LRP1 in a dynamic bivalent mode and enhances folding of ligand-binding regions of other LDLR family receptors” (The Journal of Biological Chemistry, 2021).
